Results as given in US12338277 (ROCKEFELLER UNIVERSITY, dated 2025).
Positions count from the first letter of the chain named. Where two headings read alike, the source gives them in different places.

Legend:
[1] = biological target: T1, YU-2 gp120 (HIV-1 (strain YU-2), UniProt P35961 32-498); assay: ELISA, coated antigen, OD405 vs [IgG] (M)
T1 construct: domain: gp120; also called gp120WT; intact YU-2 gp120

[2] = biological target: T1, YU-2 gp120; assay: ELISA, coated antigen, OD405 vs [IgG] (M); remark: listed apart in the source
[3] = biological target: T1, YU-2 gp120; assay: SPR, IgG over immobilised YU-2 gp120, 1:1 fit, apparent constant
[4] = biological target: T1, YU-2 gp120; assay: ELISA, coated antigen, OD405 vs [IgG] (M); remark: listed apart in the source
[5] = biological target: gp120NNT301-303AAA; assay: ELISA, coated antigen, OD405 vs [IgG] (M)
[6] = biological target: T1, YU-2 gp120; assay: ELISA, coated antigen, OD405 vs [IgG] (M); remark: listed apart in the source
[7] = biological target: T1, YU-2 gp120; assay: ELISA, coated antigen, OD405 vs [IgG] (M); remark: listed apart in the source
[8] = biological target: T1, YU-2 gp120; assay: ELISA, coated antigen, OD405 vs [IgG] (M); remark: listed apart in the source
[9] = biological target: gp120GD324-5AA; assay: ELISA, coated antigen, OD405 vs [IgG] (M)
[10] = biological target: T1, YU-2 gp120; assay: SPR, apparent KD on gp120, bar graph
[11] = biological target: HIV-1 CNE19 envelope on pseudovirus (HIV-1 (strain CNE19)); assay: cell-based or functional assay
[12] = biological target: HIV-1 62357_14_D3_4589 envelope on pseudovirus (HIV-1 (strain 62357_14_D3_4589)); assay: cell-based or functional assay

B1: 10-1074 (antibody, V domains shown)
VH: QVQLQESGPGLVKPSETLSVTCSVSGDSMNNYYWTWIRQSPGKGLEWIGYISDRESATYNPSLNSRVVISRDTSKNQLSLKLNSVTPADTAVYYCATARRGQRIYGVVSFGEFFYYYSMDVWGKGTTVTVSS
VL: SYVRPLSVALGETARISCGRQALGSRAVQWYQHRPGQAPILLIYNNQDRPSGIPERFSGTPDINFGTRATLTISGVEAGDEADYYCHMWDSRSGFSWSFGGATRLTVL
EC50 (read off the curve) [1]: ~0.3 nM | EC50 (read off the curve) [2]: ~0.5 nM | Ka [3]: 1.1e+08 M⁻¹ | Kd [3]: 9.5 nM | koff [3]: 0.00019 s⁻¹ | EC50 (read off the curve) [4]: ~0.7 nM | EC50 (read off the curve) [5]: ~0.1 nM | EC50 (read off the curve) [6]: ~0.1 nM | EC50 (read off the curve) [7]: ~0.5 nM | EC50 (read off the curve) [8]: ~0.3 nM | binding result [9]: binds

B2: 10-1074GM (antibody, V domains shown)
VH: B1 VH with Y32S, D53K, R54S, T58N, R100H, Y115T
VL: B1 VL
notes: also called 10-1074 glycomutant
fold difference of KD, wildtype vs glycomutant [10]: 1.8 fold | IC50, TZM-bl neutralization [11]: 0.19 µg/mL | IC50, TZM-bl neutralization [12]: 40.8 µg/mL

B3: 10-1341 (antibody, V domains shown)
VH: B1 VH with K75T, K124R
VL: B1 VL
EC50 (read off the curve) [1]: ~0.4 nM | EC50 (read off the curve) [2]: ~0.5 nM | Ka [3]: 1.2e+08 M⁻¹ | Kd [3]: 8.2 nM | koff [3]: 0.00016 s⁻¹ | EC50 (read off the curve) [4]: ~0.6 nM | EC50 (read off the curve) [5]: ~0.09 nM | EC50 (read off the curve) [6]: ~0.09 nM | EC50 (read off the curve) [7]: ~0.2 nM | EC50 (read off the curve) [8]: ~0.5 nM | binding result [9]: binds

B4: 10-847 (antibody, V domains shown)
VH: B1 VH with E55A
VL: B1 VL with R15S
EC50 (read off the curve) [1]: ~0.2 nM | EC50 (read off the curve) [2]: ~0.3 nM | Ka [3]: 1.1e+08 M⁻¹ | Kd [3]: 8.9 nM | koff [3]: 0.00018 s⁻¹ | EC50 (read off the curve) [4]: ~0.4 nM | EC50 (read off the curve) [5]: ~0.1 nM | EC50 (read off the curve) [6]: ~0.1 nM | EC50 (read off the curve) [7]: ~0.3 nM | EC50 (read off the curve) [8]: ~0.3 nM | binding result [9]: binds

B5: 10-410 (antibody, V domains shown)
VH: QVQLQESGPGLVKPPETLSLTCSVSGASVNDAYWSWIRQSPGKRPEWVGYVHHSGDTNYNPSLKRRVTFSLDTAKNEVSLKLVALTAADSAVYFCARALHGKRIYGIVALGELFTYFYMDVWGKGTTVTVSS
VL: SFVSVAPGQTARITCGEESLGSRSVIWYQQRPGQAPSLIIYNNNDRPSGIPERFSGSPGSTFGTTATLTITSVEAGDEADYYCHIWDSRRPTNWVFGEGTTLTVL
Ka [3]: 2.1e+07 M⁻¹ | Kd [3]: 47 nM | koff [3]: 0.0017 s⁻¹ | binding result [5]: binds | binding result [9]: binds
